# How the values were obtained:
# recombinant human PSMA = molecular target: T1, recombinant human PSMA (human, UniProt Q04609 44-750); assay: SPR (Biacore 8K), antibody captured on anti-Fc, PSMA in solution
# T1 construct: also called hu PSMA; prostate-specific membrane antigen
# Protocol: The antibodies were captured on a goat anti-Fc antibody-modified C1 chip and titrated with 3-fold serial dilutions of PSMA antigen spanning concentrations of 1 nM to 100 nM human PSMA. The association and dissociation were monitored for 3 and 30 minutes, respectively, using a flow rate of 50 μL/min. Raw binding data was referenced by subtracting the analyte binding signals from blanks and analyzed using a 1:1 Langmuir binding model by the Biacore Insight evaluation software to obtain the kinetics which were used to calculate the binding affinity. The anti-PSMA were captured using an anti-human Fc antibody and the antigens were injected in solution.
# [1] = molecular target: T2, human PSMA on prostate cancer cell lines (22RV1, C4-2B) (human, UniProt Q04609 1-750); assay: flow cytometry on C4-2B cells, four-parameter fit
# T2 construct: also called PSMA-expressing cell lines
# T2 sequence (Q04609 whole entry): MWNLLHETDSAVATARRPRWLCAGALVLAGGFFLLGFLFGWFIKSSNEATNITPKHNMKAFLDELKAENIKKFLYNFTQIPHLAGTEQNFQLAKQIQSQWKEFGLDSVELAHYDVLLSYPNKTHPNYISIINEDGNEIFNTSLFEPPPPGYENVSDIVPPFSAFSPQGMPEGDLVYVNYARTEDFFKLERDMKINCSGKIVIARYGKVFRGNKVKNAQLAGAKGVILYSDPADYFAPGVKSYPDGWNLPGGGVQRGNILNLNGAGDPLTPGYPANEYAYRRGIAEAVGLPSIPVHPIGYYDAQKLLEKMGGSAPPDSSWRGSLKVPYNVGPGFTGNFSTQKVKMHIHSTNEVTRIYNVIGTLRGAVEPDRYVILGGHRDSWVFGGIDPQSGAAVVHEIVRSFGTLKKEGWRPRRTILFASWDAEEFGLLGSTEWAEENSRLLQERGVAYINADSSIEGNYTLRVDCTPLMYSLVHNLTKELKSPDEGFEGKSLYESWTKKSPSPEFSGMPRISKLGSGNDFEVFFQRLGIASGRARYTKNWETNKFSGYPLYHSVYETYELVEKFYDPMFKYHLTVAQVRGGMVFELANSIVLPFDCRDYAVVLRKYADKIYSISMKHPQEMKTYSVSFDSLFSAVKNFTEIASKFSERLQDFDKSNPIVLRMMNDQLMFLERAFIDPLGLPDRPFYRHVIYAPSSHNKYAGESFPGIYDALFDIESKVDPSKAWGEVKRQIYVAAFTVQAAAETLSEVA
# Protocol: Molecule concentrations ranged from 500-0 nM over 12-points at 3-fold dilution. […] Values reported in the Table 69 were generated by fitting the data to a four-parameter function for ligand binding generating values for y-min, y-max, EC50, and Hill. EC90 were calculated using the equation EC90=[…]\hat{ }(1/Hill)*EC50.
# T1 sequence (Q04609 44-750 limits assumed): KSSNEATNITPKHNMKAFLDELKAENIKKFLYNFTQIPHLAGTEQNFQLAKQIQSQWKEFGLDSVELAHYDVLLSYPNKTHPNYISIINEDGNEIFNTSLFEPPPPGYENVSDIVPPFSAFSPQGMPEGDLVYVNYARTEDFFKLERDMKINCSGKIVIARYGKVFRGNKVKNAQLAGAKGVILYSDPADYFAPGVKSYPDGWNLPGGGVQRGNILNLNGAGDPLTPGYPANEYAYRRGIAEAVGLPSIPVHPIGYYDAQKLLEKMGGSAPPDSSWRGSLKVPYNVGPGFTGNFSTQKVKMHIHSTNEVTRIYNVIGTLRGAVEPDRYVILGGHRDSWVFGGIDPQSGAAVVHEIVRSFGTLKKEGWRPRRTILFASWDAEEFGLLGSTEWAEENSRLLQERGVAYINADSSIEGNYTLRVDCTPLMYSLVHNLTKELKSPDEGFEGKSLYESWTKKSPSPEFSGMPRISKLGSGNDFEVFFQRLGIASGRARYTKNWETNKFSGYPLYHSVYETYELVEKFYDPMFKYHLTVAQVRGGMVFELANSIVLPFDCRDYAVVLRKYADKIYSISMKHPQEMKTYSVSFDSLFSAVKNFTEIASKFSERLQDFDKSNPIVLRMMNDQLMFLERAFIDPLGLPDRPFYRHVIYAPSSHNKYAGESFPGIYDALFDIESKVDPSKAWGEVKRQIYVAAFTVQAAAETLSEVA
Binder,Kd (recombinant human PSMA) [nM],koff (recombinant human PSMA) [s⁻¹],kon (recombinant human PSMA) [M⁻¹ s⁻¹],EC50 [1] [nM],EC90 [1] [nM],Y-max [1],Y-min [1]
"PSMB1068 (bispecific antibody, human IgG1, kappa, L234A L235A, HC1 (ZWA): B23B62-Fab; LC2 is NA) heavy: not shown light: not shown QVQLQESGGDVVQPGRSLRLSCAASGFSFSGYGLHWVRQAPGRGLEWVTLISYDGSNKYYADSVKGRFTISRDNSKNTLYLQMNSLRAEDTAVYYCAKTTVSDPYYYGMDVWGQGTTVTVSSGGSEGKSSGSGSESKSTGGSSYELTQPPSVSVAPGQTARITCGGNNIGSKSVHWYQQKPGQAPVLVVYDDSDRPSGIPERFSGTNSGNTATLTISRAEAGDEADYYCQVWDSSSDHVVFGGGTKLTVLEPKSSDKTHTCPPCPAPEAAGGPSVFLFPPKPKDTLMISRTPEVTCVVVSVSHEDPEVKFNWYVDGVEVHNAKTKPREEQYNSTYRVVSVLTVLHQDWLNGKEYKCKVSNKALPAPIEKTISKAKGQPREPQVYVLPPSREEMTKNQVSLLCLVKGFYPSDIAVEWESNGQPENNYLTWPPVLDSDGSFFLYSKLTVDKSRWQQGNVFSCSVMHEALHNHYTQKSLSLSPG",1.11,0.000168,151000,8,247,1.9e+06,48000
"PSMB1045 (bispecific antibody, human IgG1, kappa, L234A L235A, HC1 (ZWA): B23B62-Fab; LC2 is NA) heavy: not shown light: not shown SYELMQPPSVSVSPGQTARITCSGDALPKQYAYWYQQKPGQAPVLVIYKDSERPSGIPVRFSGSSSGTTVTLTITGVQAEDEADYYCQSADSSGTYVFGTGTKVTVLGGSEGKSSGSGSESKSTGGSQVQLVESGGGVVQPGRSLRLSCAASGFTFSSYNMNWVRQAPGKGLEWVAIIYYDGSNKYYADSVKGRFTISRDISKNTLYLQMNSLRAEDTAVYYCARERGRDYYGMDVWGQGTTVTVSSEPKSSDKTHTCPPCPAPEAAGGPSVFLFPPKPKDTLMISRTPEVTCVVVSVSHEDPEVKFNWYVDGVEVHNAKTKPREEQYNSTYRVVSVLTVLHQDWLNGKEYKCKVSNKALPAPIEKTISKAKGQPREPQVYVLPPSREEMTKNQVSLLCLVKGFYPSDIAVEWESNGQPENNYLTWPPVLDSDGSFFLYSKLTVDKSRWQQGNVFSCSVMHEALHNHYTQKSLSLSPG",0.333,6.98e-05,209000,7,248,1.8e+06,53000
"PSMB1049 (bispecific antibody, human IgG1, kappa, L234A L235A, HC1 (ZWA): B23B62-Fab; LC2 is NA) heavy: not shown light: not shown QSVLTQPASVSGSPGQSITISCTGTSSDVGGYNYVSWYQQHPGKAPKLMIYEVSNRPSGVSNRFSGSKSGNTASLTISGLQAEDEADYYCSSYTSSYTYVFGTGTKLTVLGGSEGKSSGSGSESKSTGGSEVQLVESGGDLVQPGGSLRLSCAASGFTFNNYNMNWVRQAPGKGLEWVSHISTSSSNKYYADSVKGRFSISRDIAKNSMYLQMNSLRDEDTAVYYCARDGVGADYGDYYYYGMDVWGQGTTVTVSSEPKSSDKTHTCPPCPAPEAAGGPSVFLFPPKPKDTLMISRTPEVTCVVVSVSHEDPEVKFNWYVDGVEVHNAKTKPREEQYNSTYRVVSVLTVLHQDWLNGKEYKCKVSNKALPAPIEKTISKAKGQPREPQVYVLPPSREEMTKNQVSLLCLVKGFYPSDIAVEWESNGQPENNYLTWPPVLDSDGSFFLYSKLTVDKSRWQQGNVFSCSVMHEALHNHYTQKSLSLSPG",0.657,7.02e-05,107000,5,40,1.5e+06,84000
"PSMB1051 (bispecific antibody, human IgG1, kappa, L234A L235A, HC1 (ZWA): B23B62-Fab; LC2 is NA) heavy: not shown light: not shown QSVLTQPPSASGTPGQGVTISCSGSSSNIGSNTVNWFQQLPGTAPKLLIYSDNQRPSGVPDRFSGSKSGTSASLAISGLQSEDEADYYCAAWDDSLNGYVFGTGTKVTVLGGSEGKSSGSGSESKSTGGSEVQLVESGGGVVQPGRSLRLSCAASGFTFITYGMHWVRQAPGKGLEWVAVVSFDESNKYYADSVKGRFTISRDNSKNTLYLQMNSLRAEDTAVYYCARALRDGNNWDYFNGMDVWGQGTTVTVSSEPKSSDKTHTCPPCPAPEAAGGPSVFLFPPKPKDTLMISRTPEVTCVVVSVSHEDPEVKFNWYVDGVEVHNAKTKPREEQYNSTYRVVSVLTVLHQDWLNGKEYKCKVSNKALPAPIEKTISKAKGQPREPQVYVLPPSREEMTKNQVSLLCLVKGFYPSDIAVEWESNGQPENNYLTWPPVLDSDGSFFLYSKLTVDKSRWQQGNVFSCSVMHEALHNHYTQKSLSLSPG",1.01,7.75e-05,77100,10,76,1.5e+06,67000

# Source: patent US20250145711A1 (Janssen / Centocor, published 2025)
